First the molecules themselves.
B1: TSPAN10 (parent)
chain: EGCGPPLRRWLRANLAASGGYAIA
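Also: lentivirally expressed fusions sorted by FACS into six bins by GFP to DsRed ratio, PSI derived from sequencing read proportions per bin multiplied by bin number.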

The data set covers variants of B1. In words: protein stability index of a GFP-peptide fusion (GPS, HEK-293T) (PSI 1-6); higher = more stable. The settings on record: c terminus: a fixed tail appended.
Take EGCGPPLRRWLCANLAASGGYAIA [R12C]: the protein stability index was determined as 2.17.
EGCGPPLRRWLAANLAASGGYAIA [R12A]: the protein stability index stood at 1.75.
To EGCMPPLRRWLRANLAASGGYAIA [G4M] belongs 1.83; to EGCAPPLRRWLRANLAASGGYAIA [G4A], 1.54; to EGCDPPLRRWLRANLAASGGYAIA [G4D], 2.1.
Take EGCTPPLRRWLRANLAASGGYAIA [G4T]: the protein stability index came out at 2.5.
To EGCPPPLRRWLRANLAASGGYAIA [G4P] belongs 2.04; to EGCNPPLRRWLRANLAASGGYAIA [G4N], 2.06; to EGCEPPLRRWLRANLAASGGYAIA [G4E], 1.98.
In the case of EGCYPPLRRWLRANLAASGGYAIA [G4Y], the protein stability index came out at 1.83.
To EGCLPPLRRWLRANLAASGGYAIA [G4L] belongs 1.58; to EGCSPPLRRWLRANLAASGGYAIA [G4S], 2.09.
To EGCHPPLRRWLRANLAASGGYAIA [G4H] belongs 2.58.
To EGCCPPLRRWLRANLAASGGYAIA [G4C] belongs 1.32; to EGCKPPLRRWLRANLAASGGYAIA [G4K], 2.31; to EGCQPPLRRWLRANLAASGGYAIA [G4Q], 2.
Regarding EGCFPPLRRWLRANLAASGGYAIA [G4F], the protein stability index was 1.27.
To EGCWPPLRRWLRANLAASGGYAIA [G4W] belongs 2.15; to EGCRPPLRRWLRANLAASGGYAIA [G4R], 2.44.
Turning to EGCVPPLRRWLRANLAASGGYAIA [G4V], the protein stability index is 2.25.
In the case of EGCIPPLRRWLRANLAASGGYAIA [G4I], the protein stability index came to 2.28.
EGCGPPLRRVLRANLAASGGYAIA [W10V]: the protein stability index stood at 1.89.
To EGCGPPLRRNLRANLAASGGYAIA [W10N] belongs 2.55.
To EGCGPPLRRSLRANLAASGGYAIA [W10S] belongs 2.81.
To EGCGPPLRRKLRANLAASGGYAIA [W10K] belongs 2.09; to EGCGPPLRRDLRANLAASGGYAIA [W10D], 3.25.
For EGCGPPLRRRLRANLAASGGYAIA [W10R], the protein stability index turned out to be 3.5.
Take EGCGPPLRRGLRANLAASGGYAIA [W10G]: the protein stability index was 3.35.
EGCGPPLRRYLRANLAASGGYAIA [W10Y]: the protein stability index stood at 2.44.
As to EGCGPPLRRLLRANLAASGGYAIA [W10L], the protein stability index turned out to be 2.42.
To EGCGPPLRRQLRANLAASGGYAIA [W10Q] belongs 2.24.
With EGCGPPLRRFLRANLAASGGYAIA [W10F], the protein stability index turned out to be 1.61.
As to EGCGPPLRRCLRANLAASGGYAIA [W10C], the protein stability index is 2.03.
Regarding EGCGPPLRRHLRANLAASGGYAIA [W10H], the protein stability index came to 2.53.
To EGCGPPLRRILRANLAASGGYAIA [W10I] belongs 2.94; to EGCGPPLRRMLRANLAASGGYAIA [W10M], 2.62; to EGCGPPLRRPLRANLAASGGYAIA [W10P], 3.39.
For the variant EGCGPPLRRTLRANLAASGGYAIA [W10T], the protein stability index was 3.01.
As for EGCGPPLRRELRANLAASGGYAIA [W10E], the protein stability index came out at 3.4.
To EGCGPPLRRALRANLAASGGYAIA [W10A] belongs 3.63; to EGCGPPLRRWARANLAASGGYAIA [L11A], 2.55; to EGCGPPLRRWMRANLAASGGYAIA [L11M], 2.51.
To EGCGPPLRRWCRANLAASGGYAIA [L11C] belongs 1.68; to EGCGPPLRRWHRANLAASGGYAIA [L11H], 2.94; to EGCGPPLRRWVRANLAASGGYAIA [L11V], 1.82.
To EGCGPPLRRWRRANLAASGGYAIA [L11R] belongs 2.56.
EGCGPPLRRWTRANLAASGGYAIA [L11T]: the protein stability index was determined as 2.89.
To EGCGPPLRRWPRANLAASGGYAIA [L11P] belongs 2.65; to EGCGPPLRRWQRANLAASGGYAIA [L11Q], 3.13; to EGCGPPLRRWFRANLAASGGYAIA [L11F], 1.03.
To EGCGPPLRRWIRANLAASGGYAIA [L11I] belongs 1.91; to EGCGPPLRRWGRANLAASGGYAIA [L11G], 1.74; to EGCGPPLRRWWRANLAASGGYAIA [L11W], 1.5.
To EGCGPPLRRWYRANLAASGGYAIA [L11Y] belongs 1.9.
As for EGCGPPLRRWERANLAASGGYAIA [L11E], the protein stability index was found to be 2.57.
As for EGCGPPLRRWDRANLAASGGYAIA [L11D], the protein stability index was found to be 2.12.
To EGCGPPLRRWKRANLAASGGYAIA [L11K] belongs 2.43; to EGCGPPLRRWSRANLAASGGYAIA [L11S], 2.61; to EGCGPPLARWLRANLAASGGYAIA [R8A], 1.04.
To EGCGPPLHRWLRANLAASGGYAIA [R8H] belongs 1.58; to EGCGPPLIRWLRANLAASGGYAIA [R8I], 2.1; to EGCGPPLSRWLRANLAASGGYAIA [R8S], 1.7.
To EGCGPPLGRWLRANLAASGGYAIA [R8G] belongs 1.71; to EGCGPPLKRWLRANLAASGGYAIA [R8K], 1.85.
With EGCGPPLWRWLRANLAASGGYAIA [R8W], the protein stability index came out at 1.31.
For EGCGPPLPRWLRANLAASGGYAIA [R8P], the protein stability index worked out at 1.46.
As for EGCGPPLQRWLRANLAASGGYAIA [R8Q], the protein stability index stood at 2.05.
To EGCGPPLMRWLRANLAASGGYAIA [R8M] belongs 2.16; to EGCGPPLFRWLRANLAASGGYAIA [R8F], 1.3.
For EGCGPPLNRWLRANLAASGGYAIA [R8N], the protein stability index turned out to be 1.83.
To EGCGPPLCRWLRANLAASGGYAIA [R8C] belongs 1.53.
Turning to EGCGPPLLRWLRANLAASGGYAIA [R8L], the protein stability index was 1.37.
To EGCGPPLTRWLRANLAASGGYAIA [R8T] belongs 1.71; to EGCGPPLDRWLRANLAASGGYAIA [R8D], 1.47.
To EGCGPPLERWLRANLAASGGYAIA [R8E] belongs 1.26; to EGCGPPLVRWLRANLAASGGYAIA [R8V], 2.7; to EGCGPPLRVWLRANLAASGGYAIA [R9V], 1.65.
To EGCGPPLRKWLRANLAASGGYAIA [R9K] belongs 1.79.
As for EGCGPPLRWWLRANLAASGGYAIA [R9W], the protein stability index is 1.
In the case of EGCGPPLRNWLRANLAASGGYAIA [R9N], the protein stability index stood at 2.72.
To EGCGPPLRTWLRANLAASGGYAIA [R9T] belongs 1.7; to EGCGPPLRDWLRANLAASGGYAIA [R9D], 1.9.
To EGCGPPLRMWLRANLAASGGYAIA [R9M] belongs 1.65.
To EGCGPPLREWLRANLAASGGYAIA [R9E] belongs 2.28; to EGCGPPLRHWLRANLAASGGYAIA [R9H], 1.58.
As for EGCGPPLRLWLRANLAASGGYAIA [R9L], the protein stability index came out at 1.05.
In the case of EGCGPPLRSWLRANLAASGGYAIA [R9S], the protein stability index was 2.33.
On to EGCGPPLRCWLRANLAASGGYAIA [R9C], for which the protein stability index was 1.29.
As for EGCGPPLRYWLRANLAASGGYAIA [R9Y], the protein stability index worked out at 2.29.
As to EGCGPPLRIWLRANLAASGGYAIA [R9I], the protein stability index amounted to 2.9.
To EGCGPPLRPWLRANLAASGGYAIA [R9P] belongs 2.54; to EGCGPPLRGWLRANLAASGGYAIA [R9G], 1.25.
To EGCGPPLRQWLRANLAASGGYAIA [R9Q] belongs 1.81; to EGCGPPLRAWLRANLAASGGYAIA [R9A], 1.55.
